In patent US12521446B2, “Anti-CEACAM5 antibody drug conjugates” (Bristol-Myers Squibb Company, priority 2024, dated 2026):
Where a chain is given by its changes, count along the chain named.

Columns and labels:
[1] = target: T1, full-length human CEACAM5 (Homo sapiens, UniProt P06731, T210S); test: SPR kinetics of progeny antibodies (BIACORE), Example 8; assay type: binding; conditions: hIgG1.3f progeny antibodies, Table 12A
T1 construct: The SPR kinetics against full-length human and cyno CEACAM5 were set up as follows
T1 sequence (P06731 35-702 T210S): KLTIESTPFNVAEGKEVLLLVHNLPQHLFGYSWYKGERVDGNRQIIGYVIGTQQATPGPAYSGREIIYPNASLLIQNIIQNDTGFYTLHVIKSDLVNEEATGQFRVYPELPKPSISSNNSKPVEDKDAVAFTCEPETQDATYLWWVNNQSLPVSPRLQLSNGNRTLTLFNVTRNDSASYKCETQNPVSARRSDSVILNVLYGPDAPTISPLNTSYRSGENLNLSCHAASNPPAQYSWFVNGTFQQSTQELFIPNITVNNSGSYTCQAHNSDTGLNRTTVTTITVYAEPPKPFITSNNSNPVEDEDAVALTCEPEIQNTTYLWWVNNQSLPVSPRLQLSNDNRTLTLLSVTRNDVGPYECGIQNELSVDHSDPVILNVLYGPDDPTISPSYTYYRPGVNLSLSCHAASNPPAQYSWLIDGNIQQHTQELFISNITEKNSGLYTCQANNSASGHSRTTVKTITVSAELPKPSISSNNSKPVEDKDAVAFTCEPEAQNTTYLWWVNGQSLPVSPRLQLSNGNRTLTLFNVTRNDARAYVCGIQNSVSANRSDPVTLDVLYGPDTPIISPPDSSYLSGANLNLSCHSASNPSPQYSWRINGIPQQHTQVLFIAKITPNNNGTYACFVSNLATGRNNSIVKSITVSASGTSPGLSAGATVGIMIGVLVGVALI
Description: (§1) Antibody genes with single amino acid substitutions and combinations of substitutions were synthesized in IgG expression vectors, transiently transfected into HEK cells, and purified via Protein A. In addition, the framework germline reversions described above were also incorporated into the sequences of the progeny. Purified IgG1.3 CEACAM5 mAb clones were characterized using the BIACORE® for high-throughput SPR-based monoclonal characterization.
(§2) The BIACORE® instrument was primed with 1×HBSP+ running buffer (Cytiva catalog no.BR100671). The CM5 chip (Cytiva catalog no. 29149604) was equilibrated to room temperature, and the BIACORE® instrument was re-primed. A human antibody Fc capture kit (Cytiva catalog no. 29234600) was utilized for this analysis. The human antibody Fc capture reagent was immobilized to both flow cells in all 8 flow channels of the CM5 chip via amine-coupling using the following conditions. Immobilization was performed at a temperature of 25° C. The anti-human Fc capture reagent was diluted to a concentration of 25 μg/mL in acetate pH5 buffer. The chip surface was activated by injecting a mixture of 1-ethyl-3-(-3-dimethylaminopropyl) carbodiimide hydrochloride (EDC) and N-hydroxy succinimide (NHS) for 420 seconds at a rate of 10 microliters per minute (uL/min). A concentration (25 ug/mL) of anti-human Fc capture reagent was then injected on the surface for 420 seconds at a rate of 10 uL/min. The remaining chip surface was blocked by injecting ethanolamine for 420 seconds at a rate of 10 uL/min.
(§3) The SPR kinetics against full-length human and cyno CEACAM5 were set up as follows. The antibody capture was performed by diluting the antibodies to a concentration of 10 nM in HBSP+ buffer. The 10 nM mAbs were captured for 20 seconds at 5 uL/min to achieve capture levels of approximately 100RU. Analyte binding was performed by first making a titration series of full-length human and cyno CEACAM5 that were prepared (from 500 nM-0.23 nM) with three-fold dilutions in HBSP+ buffer. The association rate was 180 seconds at 30 uL/min. The dissociation rate was 600 seconds at 30 uL/min. Regeneration was performed using two injections of 3M magnesium chloride MgCl2 for 30 seconds at 30 uL/min. A data fit was performed using a 1:1 binding model with global Rmax. Rmax reflects the maximal response when all ligand is occupied.

full-length cyno CEACAM5 = test: as above; assay type: binding, cynomolgus; conditions: hIgG1.3f progeny antibodies, Table 12A; for Kd: read-out: cyCEACAM5 KD
Description: as §1, §2, §3

HCT116-cyCEACAM5 = test: Internalization of progeny antibodies (Incucyte, pHrodo red), Example 9; assay type: cell-based, cynomolgus; conditions: hIgG1.3 progeny, 25 nM mAb, Table 13A
Protocol: (§4) Antibodies were evaluated for internalization using HCT-116-huCEACAM5, HCT-116-cyCEACAM5, and MKN45 cell lines.
(§5) Cell lines were first analyzed for cell density and viability using a Vi-cell viability machine. The cell lines were diluted to 0.2E6 vc/mL in growth media, and a volume (50 uL) of each was dispensed to a flat-bottom 96-well plate to achieve cell counts of 10K cells/well. Ls174T media included MEM with 10% HI-FBS and 1% pen/strep. MKN45 media included RPMI (ATCC modification) with 10% HI-FBS and 1% pen/strep. HCT-116 media included McCoy's 5a with 10% HI-FBS, 1% pen/strep, and 6 μg/mL Blasticidin. Cells were allowed to adhere to wells of the 96-well plate (Corning Cat. No. 3595) at 37° C./5% CO2 for approximately 4 hours.
(§6) Each test mAb and control mAb was labeled by first pre-mixing the respective antibody with a pHrodo red (Fab conjugated to pH-sensitive; Thermo cat #Z25612) secondary reagent at a 3:1 dye:mAb molar ratio. A series of dilutions were prepared at 2× target concentration in growth media. The final mAb target concentration was 25 nM. […]
Coated plates contacted with the labeled mAbs were incubated at 37° C. for 30 minutes. Each plate was then read using an Incucyte apparatus, which collected images from the red and phase channels [10× objective; 3 images/well] for a 24-hour duration, with reads of plates every 30 minutes. […]

MKN45 = test: as above; assay type: cell-based; conditions: hIgG1.3 progeny, 25 nM mAb, Table 13A
Protocol: as §4
The MKN45 or Ls174T cells were seeded at 10K cells/well (50 uL).
as §5
Each test mAb and control mAb was labeled by first pre-mixing the respective antibody with a pHrodo red (Fab conjugated to pH-sensitive; Thermo cat #Z25612) secondary reagent at a 3:1 dye:mAb molar ratio. A series of dilutions were prepared at 2× target concentration in growth media. […]
(§7) Coated plates contacted with the labeled mAbs were incubated at 37° C. for 30 minutes. Each plate was then read using an Incucyte apparatus, which collected images from the red and phase channels [10× objective; 3 images/well] for a 24-hour duration, with reads of plates every 30 minutes.

HCT116-huCEACAM5 = target: T2, HCT116-huCEACAM5 (Homo sapiens, UniProt P06731, T210S); test: as above; assay type: cell-based; conditions: hIgG1.3 progeny, 25 nM mAb, Table 13A
T2 construct: expressed in transfected cells; host or cells: HCT-116
T2 sequence (P06731 35-676 T210S): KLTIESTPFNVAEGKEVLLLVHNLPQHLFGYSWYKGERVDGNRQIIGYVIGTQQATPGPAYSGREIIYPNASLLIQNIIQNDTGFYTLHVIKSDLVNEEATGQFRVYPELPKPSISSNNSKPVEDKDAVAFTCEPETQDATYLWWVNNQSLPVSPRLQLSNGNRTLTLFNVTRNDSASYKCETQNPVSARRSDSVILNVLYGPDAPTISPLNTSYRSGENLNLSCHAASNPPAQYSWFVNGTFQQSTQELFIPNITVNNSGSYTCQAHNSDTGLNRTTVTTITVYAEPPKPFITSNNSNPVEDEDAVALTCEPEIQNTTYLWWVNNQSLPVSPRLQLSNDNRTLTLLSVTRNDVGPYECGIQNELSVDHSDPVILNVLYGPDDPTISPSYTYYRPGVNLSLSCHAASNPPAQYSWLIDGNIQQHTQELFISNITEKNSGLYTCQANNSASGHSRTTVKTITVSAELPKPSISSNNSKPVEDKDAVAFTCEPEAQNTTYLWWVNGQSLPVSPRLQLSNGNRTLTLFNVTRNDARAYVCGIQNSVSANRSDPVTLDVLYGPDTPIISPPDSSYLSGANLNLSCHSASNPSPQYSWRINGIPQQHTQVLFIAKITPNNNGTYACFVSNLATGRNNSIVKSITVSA
Protocol: as §4, §5, §6, §7

Chain of full-length cyno CEACAM5 (as listed by the source): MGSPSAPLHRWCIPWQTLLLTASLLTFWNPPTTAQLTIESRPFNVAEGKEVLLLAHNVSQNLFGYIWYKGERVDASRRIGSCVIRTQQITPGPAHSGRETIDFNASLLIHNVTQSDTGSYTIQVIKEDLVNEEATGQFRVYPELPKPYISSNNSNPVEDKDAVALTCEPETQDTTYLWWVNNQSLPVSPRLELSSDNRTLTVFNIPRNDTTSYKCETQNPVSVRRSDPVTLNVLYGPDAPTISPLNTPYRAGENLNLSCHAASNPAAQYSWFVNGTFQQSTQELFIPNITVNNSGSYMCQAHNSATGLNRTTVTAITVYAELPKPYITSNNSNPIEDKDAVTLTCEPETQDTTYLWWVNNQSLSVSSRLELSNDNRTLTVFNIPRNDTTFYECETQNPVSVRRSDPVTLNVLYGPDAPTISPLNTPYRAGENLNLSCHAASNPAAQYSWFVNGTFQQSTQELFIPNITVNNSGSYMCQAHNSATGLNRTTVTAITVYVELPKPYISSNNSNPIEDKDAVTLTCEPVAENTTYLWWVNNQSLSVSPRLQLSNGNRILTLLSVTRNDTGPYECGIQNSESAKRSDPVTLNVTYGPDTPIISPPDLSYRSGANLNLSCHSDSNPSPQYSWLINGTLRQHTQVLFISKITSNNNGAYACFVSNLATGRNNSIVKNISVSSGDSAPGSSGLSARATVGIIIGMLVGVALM
Chain of HCT116-cyCEACAM5 (as listed by the source): as above

B1: MBP007: hIgG1.3f progeny of MBN001; VH SEQ ID NO: 73, VL SEQ ID NO: 74 (antibody, V domains shown)
VH: QVQLVESGGGVVQPGRSLRLSCAASGIYFSSHGMHWVRQAPGKGLEWVTFISYDGSYKSYVDSVKGRFTISRDNSKNTLYLQMNSLRAEDTAVYYCATGLTGTGANDIWGQGTMVTVSS
VL: EIVLTQSPGTLSLSPGERATLSCRASQSVSSSYLAWYQQKPGQAPRLLIYGASSRATGIPDRFSGSGSGTDFTLTISRLEPEDFAVYYCQQNKPSPYTFGQGTKLEIK
huCEACAM5 ka [1]: 79600 M⁻¹ s⁻¹ | huCEACAM5 kd [1]: 0.00171 s⁻¹ | cyCEACAM5 ka (full-length cyno CEACAM5): 42700 M⁻¹ s⁻¹ | cyCEACAM5 kd (full-length cyno CEACAM5): 0.000924 s⁻¹ | Kd (full-length cyno CEACAM5): 21.7 nM | HCT116-cyCEACAM5 red/phase AUC (internalization) (HCT116-cyCEACAM5): 1.80 | MKN45 24 hr red/phase AUC (internalization) (MKN45): 3.28 | HCT116-huCEACAM5 red/phase AUC (internalization) (HCT116-huCEACAM5): 1.05

B2: MBP010: hIgG1.3f progeny of MBN001; VH SEQ ID NO: 79, VL SEQ ID NO: 80 (antibody, V domains shown)
VH: B1 VH with Y28T, G55S, N106F
VL: B1 VL with P94R
huCEACAM5 ka [1]: 50000 M⁻¹ s⁻¹ | huCEACAM5 kd [1]: 0.00102 s⁻¹ | cyCEACAM5 ka (full-length cyno CEACAM5): 34000 M⁻¹ s⁻¹ | cyCEACAM5 kd (full-length cyno CEACAM5): 0.000706 s⁻¹ | Kd (full-length cyno CEACAM5): 20.8 nM | HCT116-cyCEACAM5 red/phase AUC (internalization) (HCT116-cyCEACAM5): 2.55 | MKN45 24 hr red/phase AUC (internalization) (MKN45): 3.11 | HCT116-huCEACAM5 red/phase AUC (internalization) (HCT116-huCEACAM5): 1.00
